Columns and labels:
[1] = target: T1, cynomolgus monkey BDCA2 (full-length, cell surface, E73 SNP form) (cynomolgus monkey, UniProt Q8WTT0 1-213 (human entry)); assay: indirect method: flow cytometry of pDCs in cynomolgus whole blood, unlabelled BIIB059 titrated, free BDCA2 detected with the competitor BIIB059-A647 at 10 ug/mL [panel Cynomolgus monkey 1]
T1 construct: also called cyno BDCA2; surface cynomolgus monkey BDCA2
T1 chain: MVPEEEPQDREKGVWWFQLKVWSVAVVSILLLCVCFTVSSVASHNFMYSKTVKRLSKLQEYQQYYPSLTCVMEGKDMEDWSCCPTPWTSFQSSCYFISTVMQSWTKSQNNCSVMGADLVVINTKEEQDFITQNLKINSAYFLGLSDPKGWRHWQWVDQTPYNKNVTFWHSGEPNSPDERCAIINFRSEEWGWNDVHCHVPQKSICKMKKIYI
Experimental: (§1) The MFI of PE (open symbols, graphed on the left y-axis) or A647 (closed symbols, graphed on the right y-axis) was calculated in FlowJo software, and graphed using GraphPad Prism software (four-parameter nonlinear regression curve fit of log-transformed data).
(§2) The maximal values were taken from the values at the plateau in each assay (FIGS. 24 and 25).

[2] = target: T1, cynomolgus monkey BDCA2 (full-length, …); assay: indirect method: flow cytometry of pDCs in cynomolgus whole blood, unlabelled BIIB059 titrated, free BDCA2 detected with the competitor BIIB059-A647 at 10 ug/mL [panel Cynomolgus monkey 6]
Experimental: as §1

[3] = target: T2, human BDCA2 (full-length, cell surface) (human, UniProt Q8WTT0 1-213); assay: flow cytometry, Alexa647-labelled BIIB059 on pDCs in human whole blood, on ice
T2 construct: also called huBDCA2; surface human BDCA2
T2 sequence: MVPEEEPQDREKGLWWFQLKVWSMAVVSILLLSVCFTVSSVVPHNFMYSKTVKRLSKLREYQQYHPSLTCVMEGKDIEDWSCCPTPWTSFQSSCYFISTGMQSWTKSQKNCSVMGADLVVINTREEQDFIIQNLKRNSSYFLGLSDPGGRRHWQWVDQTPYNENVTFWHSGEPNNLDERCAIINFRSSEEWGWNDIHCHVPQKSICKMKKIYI
Experimental: Cynomolgus monkey (Toxikon, Inc, Bedford, Mass.) or human peripheral blood (Biogen Idec) were collected in sodium heparin collection tubes and maintained at room temperature. A FACS staining antibody cocktail for identifying pDCs was added to each whole blood aliquot, incorporating CD20, CD14, CD123 and HLA-DR antibodies. […] Blood was incubated on ice, protected from light, for 30 min. […] After a 10-15 min. incubation at room temperature, samples were centrifuged at 1400 rpm for 5 min. The supernatant was decanted, leaving only a pellet of white blood cells (WBC). Each WBC pellet was washed with 5 mL of FACS buffer (1% BSA+0.002% NaAzide+1 mM CaCl₂+1 mM MgCl₂ in PBS), and centrifuged at 1400 rpm for 5 min. The supernatant was decanted, and each WBC pellet was resuspended in 200 μL of FACS buffer and transferred to a 96-well round bottom plate (Fisher Scientific). The plate was centrifuged at 1400 rpm for 5 min. The supernatant was dumped out of the plate, and each WBC pellet was washed with 200 μL of FACS buffer. The plate was centrifuged at 1400 rpm for 5 min, and the supernatant dumped out of the plate. Following washing (as above), WBCs were resuspended in 200 μL of 1% paraformaldehyde (PFA) in PBS, and fixed at 4° C. overnight, protected from light. […] Each WBC pellet was resuspended in 250 μL of FACS buffer and fluorescence intensity measured on a LSRII 4-color FACS machine. […]

[4] = target: the molecule itself; assay: AlphaScreen self-association assay: glutathione donor and acceptor beads carrying human FcRIIa (CD32a) GST; a signal needs antibody on both beads to associate with itself
Experimental: The AlphaScreen assay is a homogeneous proximity assay utilizing glutathione donor and acceptor beads (Perkin Elmer) to bind human FcRIIa (CD32a) GST. Various concentrations of the antibodies to be tested were added in this mixture. […] The level of emission detected by the Envision (Perkin Elmer) instrument is proportional to the degree of self-association.

[5] = target: T2, human BDCA2 (full-length, cell surface); assay: cell-based or functional assay
[6] = target: T1, cynomolgus monkey BDCA2 (full-length, …); assay: flow cytometry, whole blood pDCs of cynomolgus monkey donor 8, anti-human IgG PE secondary
Experimental: The MFI of PE was calculated in FlowJo software, and the percent of maximal binding, using the 40 μg/mL point as 100%, was computed. Each line represents one individual cynomolgus monkey, for a total of twelve cynomolgus monkeys, and graphed using GraphPad Prism software (four-parameter nonlinear regression curve fit of log-transformed data). Staining was repeated once a week for three weeks total.
as §2
(§3) MFI of PE was calculated with FlowJo software, and EC50 curves were generated in GraphPad Prism software.

[7] = target: T1, cynomolgus monkey BDCA2 (full-length, …); assay: indirect method: flow cytometry of pDCs in cynomolgus whole blood, unlabelled BIIB059 titrated, free BDCA2 detected with the competitor BIIB059-A647 at 10 ug/mL [panel Cynomolgus monkey 7]
Experimental: as §1

[8] = target: T1, cynomolgus monkey BDCA2 (full-length, …); assay: flow cytometry, whole blood pDCs of cynomolgus monkey donor 11, anti-human IgG PE secondary
Experimental: as §2, §3

[9] = target: T1, cynomolgus monkey BDCA2 (full-length, …); assay: indirect method: flow cytometry of pDCs in cynomolgus whole blood, unlabelled BIIB059 titrated, free BDCA2 detected with the competitor BIIB059-A647 at 10 ug/mL [panel Cynomolgus monkey 8]
Experimental: as §1

B1: BIIB059 (antibody, human IgG1, kappa)
heavy: not shown
light: DIQLTQSPSSLSASVGDRVTITCKASQSVDYDGDSYMNWYQQKPGKAPKLLIYAASTLESGVPSRFSGSGSGTDFTLTISSLQPEDFATYYCQQANEDPRTFGQGTKVEIKRTVAAPSVFIFPPSDEQLKSGTASVVCLLNNFYPREAKVQWKVDNALQSGNSQESVTEQDSKDSTYSLSSTLTLSKADYEKHKVYACEVTHQGLSSPVTKSFNRGEC
notes: Humanized IgG1 kappa, mature chains; in some assays labelled with Alexa647; also called hu24F4 H4/L1 C95A; H4-L1-C95A (YL751/YL746)
B1 was tested, and the “IC50 (read off the curve)” value [1] was about 1 µg/mL, the “IC50 (read off the curve)” value [2] was about 1 µg/mL and the EC50 [3] was 1.44 µg/mL. For the same binder, the binding result [4] was “no binding (tested: 250 µg/ml)”, the “EC50 of BIIB059-mediated BDCA2 internalization (whole blood, 10 donors)” value [5] was 0.02 µg/mL and the “IC50 for inhibition of TLR9-induced IFNα production by PBMC” value [5] was 0.001 µg/mL. The “IC50 for inhibition of TLR9-induced IFNα production by PBMC from healthy donors” value [5] was 0.04 µg/mL, the “IC50 for inhibition of immune complex-induced IFNα by pDCs” value [5] was 0.04 µg/mL and the “IC50 of BIIB059 mediated inhibition of TLR9 induced IFNα (whole blood, 10 donors)” value [5] was 0.07 µg/mL. For the same binder, the EC50 [6] was 1.2 µg/mL, the “IC50 (read off the curve)” value [7] was about 2 µg/mL and the EC50 [8] was 1.4 µg/mL. For the same binder, the “IC50 (read off the curve)” value [9] was about 2 µg/mL.

From patent US20180362652A1 (Biogen, published 2018)
